Test results reported in patent US20230192897A1 (NUMAB THERAPEUTICS, published 2023).
Several values for one entry are separate records, joined by “and”; a condition that tells them apart may be missing. Equal values may be shown once.

How the values were obtained:
Fc tagged human PDL1 = target: T1, Fc tagged human PDL1 (human, UniProt Q9NZQ7 19-239); test: SPR
T1 construct: Bought (Sino Biological, cat. 10084-H02H); captured on the SPR chip; also called PDL1-Fc chimeric protein
Description: (§1) Affinity to PDL1 of the different species was determined by SPR measurements using a Biacore T200 device (GE Healthcare). An antibody specific for the Fc region of human IgGs was immobilized on a sensor chip (CM5 sensor chip, GE Healthcare) by amine-coupling. For all formats, with the exception of the Fc containing Morrison formats, PDL1-Fc chimeric protein from different species were captured by the immobilized antibody.
(§2) Three-fold serial dilutions of the molecules specific for PDL1 (0.12-90 nM) were injected into the flow cells for three minutes and dissociation was monitored for 10 minutes. After each injection cycle, surfaces were regenerated with one injection of a 3 M MgCl₂ solution. The apparent dissociation (kd) and association (kₐ) rate constants and the apparent dissociation equilibrium constant (KD) were calculated using one-to-one Langmuir binding model. Affinity to CD137 of the different species was determined using the identical setup as for PDL1 with the exception that CD137-Fc chimeric protein from different species were captured by the immobilized antibody.

Fc tagged human CD137 = target: T2, Fc tagged human CD137 (human, UniProt Q07011 24-186); test: SPR
T2 construct: also called CD137-Fc chimeric protein
Description: as §1, §2

human PDL1 on cells = human PDL1 on cells (human, UniProt Q9NZQ7 19-290); test: cell-based or functional assay
[1] = target: CD137 on Jurkat NFkB reporter cells (human, UniProt Q07011 24-255); test: cell-based or functional assay
biotinylated human PDL1 [2] = target: T3, biotinylated human PDL1 (human, UniProt Q9NZQ7 19-238, limits assumed, biotinylated); test: competition ELISA B7.1/PDL1
T3 construct: also called biotinylated PDL1
Description: Plates were blocked for 1 hour at room temperature by adding 300 μl of PBS with 1% BSA and 0.2% tween (dilution buffer) to each well. […] The mixtures were pre-incubated for 1 hour at room temperature under gentle agitation on a rotating mixer (21 rpm) and added to the microplates after 3 wash cycles with 450 μl wash buffer per well. Plates were incubated for 1.5 hours at room temperature under gentle agitation, then 10 ng/ml streptavidin-polyHRP40 was added to each microplate well after three washes with 450 μl of wash buffer per well. After 1 h incubation at RT, plates were washed three times with 450 μl wash buffer and TMB substrate solution was added. The enzymatic reaction was stopped after 6 minutes by addition of 1 M HCl and absorbance was measured at 450 nm using 690 nm as a reference wavelength. For calculation of IC₅₀ values, a four-parameter logistic (4PL) curve fit was performed in Graph Pad Prism using reference subtracted values.

biotinylated human PDL1 [3] = target: T3, biotinylated human PDL1; test: competition ELISA PD-1/PDL1
Description: Plates were blocked for 1 hour at room temperature by adding 300 μl of PBS with i%BSA and 0.2% tween (dilution buffer) to each well. Inhibitors were serially diluted in 3-fold steps to final concentrations ranging from 300 to 0.005 ng/ml in dilution buffer containing 1 ng/ml biotinylated human PDL1. The mixtures were pre-incubated for 1 hour at room temperature under gentle agitation on a rotating mixer (21 rpm) and added to the microplates after 3 wash cycles with 450 μl wash buffer per well. Plates were incubated for 1.5 hours at room temperature under gentle agitation, then 10 ng/ml streptavidin-polyHRP40 was added to each microplate well after three washes with 450 μl of wash buffer per well. After 1 h incubation at RT, plates were washed three times with 450 μl wash buffer and TMB substrate solution was added. The enzymatic reaction was stopped after 6 minutes by addition of 1 M HCl and absorbance was measured at 450 nm using 690 nm as a reference wavelength. For calculation of IC₅₀ values, a four-parameter logistic (4PL) curve fit was performed in Graph Pad Prism using reference subtracted values.

B1: PRO966 (other)
chain: DIQMTQSPSSLSASVGDRVTITCQASQSINDYLAWYQQKPGKAPKLLIYKASTLASGVPSRFSGSGSGTDFTLTISSLQPEDFATYYCQQGYIITDIDNVFGTGTKVTVLGGGGGSQVQLQESGPGLVKPSETLSLTCKVSGFSFNNDYDMCWIRQPPGKGLEWIGCIDTGDGSTYYASWAKGRVTISVDSSKNQFSLKLSSVTAADTAVYYCAREAASSSGYGMGYFDLWGQGTLVTVSSGGGGSGGGGSGGGGSGGGGSIQMTQSPSSLSASVGDRVTITCQSSQSVYDNNWLAWYQQKPGKAPKLLIYRASNLASGVPSRFSGSGSGTDFTLTISSLQPEDFATYYCQGTYLSSNWYWAFGTGTKVTVLGGGGGSQVQLQESGPGLVKPSETLSLTCKVSGFSFSSGYDMCWIRQPPGKGLEWIGCVVAGSVDITYYASWAKGRVTISVDSSKNQFSLKLSSVTAADTAVYYCARKDAYSDAFNLWGQGTLVTVSSGGGGSGGGGSIQMTQSPSSLSASVGDRVTITCQSSESVYSNNQLSWYQQKPGQPPKLLIYDASDLASGVPSRFSGSGSGTDFTLTISSLQPEDFATYYCAGGFSSSSDTAFGGGTKLTVLGGGGGSGGGGSGGGGSGGGGSEVQLVESGGGLVQPGGSLRLSCAASGFSLSSNAMGWVRQAPGKGLEYIGIISVGGFTYYASWAKGRFTISRDNSKNTVYLQMNSLRAEDTATYFCARDRHGGDSSGAFYLWGQGTLVTVSS
notes: trispecific scDb-scFv; also called PRO1052; 38-27-C05 sc01 scDb-i/33-03-G02 sc01 scDb-o/19-01-H04-sc03 scFv
B1 was tested, and the binding result (Fc tagged human PDL1) was “binds”, the Kd (Fc tagged human CD137) was 2.2 nM and the koff (Fc tagged human CD137) was 0.0022 s⁻¹.

B2: PRO1347 (scFv)
scFv: DIQMTQSPASLSASVGDRVTITCQASQSIGTYLAWYQQKPGKPPKLLIYRAFILASGVPSRFSGSGSGTDFTLTISSLQPEDFATYYCQSNFYSDSTTIGPNAFGTGTKVTVLGGGGGSGGGGSGGGGSGGGGSEVQLVESGGGLVQPGGSLRLSCAASGFSFNSDYWIYWVRQAPGKGLEWIASIYGGSSGNTQYASWAQGRFTISRDNSKNTVYLQMNSLRAEDTAVYFCARGYVDYGGATDLWGQGTLVTVSS
notes: also called scFv of 37-20-sc09.1; 37-20-B03-sc09
Binder B2 has a Kd (Fc tagged human PDL1) of 0.009 nM.

B3: PRO1360 (scFv)
scFv: DFQLTQSPSSLSASVGDRVTITCQASQSISNRLAWYQQKPGKPPKLLIYSASTLASGVPSRFSGSGSGTDFTLTISSLQPEDFATYYCQSTYYGNDGNAFGTGTKVTVLGGGGGSGGGGSGGGGSGGGGSESQLVESGGGLVQPGGSLRLSCAASGFSFSANYYPCWVRQAPGKGLEWIGCIYGGSSDITYDANWTKGRFTISRDNSKNTVYLQMNSLRAEDTAVYFCARSAWYSGWGGDLWGPGTLVTVSS
notes: anti-CD137 scFv; also called 38-27-A11 sc03 scFv
With B3 the Kd (Fc tagged human CD137) was 0.234 nM.

B4: PRO1359 (scFv)
scFv: DIQMTQSPSSLSASVGDRVTITCQASQSISNRLAWYQQKPGKAPKLLIYSASTLASGVPSRFSGSGSGTDFTLTISSLQPEDFATYYCQSTYYGNDGNAFGTGTKVTVLGGGGGSGGGGSGGGGSGGGGSEVQLVESGGGLVQPGGSLRLSCAASGFSFSANYYPCWVRQAPGKGLEWIGCIYGGSSDITYDANWTKGRFTISRDNSKNTVYLQMNSLRAEDTAVYYCARSAWYSGWGGDLWGQGTLVTVSS
notes: anti-CD137 scFv; also called 38-27-A11 sc02 scFv
B4 was tested, and the Kd (Fc tagged human CD137) was 3.24 nM and 3.07 nM.

B5: PRO908 (scFv)
scFv: DIQMTQSPSSLSASVGDRVTITCQASQSIGTYLAWYQQKPGKAPKLLIYRAFILASGVPSRFSGSGSGTDFTLTISSLQPEDFATYYCQSNFYSDSTTIGPNAFGTGTKVTVLGGGGGSGGGGSGGGGSGGGGSQVQLQESGPGLVKPSETLSLTCKVSGFSFNSDYWIYWIRQPPGKGLEWIGSIYGGSSGNTQYASWAQGRVTISVDSSKNQFSLKLSSVTAADTAVYYCARGYVDYGGATDLWGQGTLVTVSS
notes: also called scFv of 37-20-B03 sc01
Binder B5 has a Kd (Fc tagged human PDL1) of 0.00594 nM.

B6: PRO1352 (scFv)
scFv: DIQMTQSPSSLSASVGDRVTITCQASQSINNVLAWYQQKPGKAPKLLIYRASTLASGVPSRFSGSGSGTDFTLTISSLQPEDFATYYCQSSYGNYGDFGCGTKVTVLGGGGGSGGGGSGGGGSGGGGSEVQLVESGGGLVQPGGSLRLSCAASGFSFSNSYWICWVRQAPGKCLEWIGCTFVGSSDSTYYANWAKGRFTISRDNSKNTVYLQMNSLRAEDTAVYYCARHPSDAVYGYANNLWGQGTLVTVSS
notes: also called scFv of 38-02-A04 sc13
For B6, the Kd (Fc tagged human CD137) was 1.47 nM.

B7: PRO1392 (scFv)
scFv: DIQMTQSPSSLSASVGDRVTITCQASQSINDYLAWYQQKPGKAPKLLIYKASTLASGVPSRFSGSGSGTDFTLTISSLQPEDFATYYCQQGYIITDIDNVFGTGTKVTVLGGGGGSGGGGSGGGGSGGGGSQVQLQESGPGLVKPSETLSLTCKASGFSFSSGYDMCWVRQPPGKGLEWIACVVAGSVDITYYASWAKGRVTISKDSSKNQVSLKLSSVTAADTAVYYCARKDAYSDAFNLWGQGTLVTVSS
notes: also called scFv of 33-03-G02 sc18
Binder B7 has a Kd (Fc tagged human PDL1) of 0.00994 nM.

B8: PRO1183 (scFv)
scFv: DFQLTQSPSSLSASVGDRVTITCQASQSINDYLAWYQQKPGKSPKLLIYKASTLASGVPSRFSGSGSGTDFTLTISSLQPEDFATYYCQQGYIITDIDNVFGTGTKVTVLGGGGGSGGGGSGGGGSGGGGSQSQLQESGPGLVKPSETLSLTCKASGFSFSSGYDMCWVRQPPGKGLEWIACVVAGSVDITYYASWAKGRVTISKDSSKNQVSLKLSSVTAADTAVYFCARKDAYSDAFNLWGQGTLVTVSS
notes: also called scFv of 33 03-G02 sc03
For B8, the Kd (Fc tagged human PDL1) was < 0.00209 nM.

B9: PRO1482 (other)
chain: DIQMTQSPSSLSASVGDRVTITCQASQSINNVLAWYQQKPGKAPKLLIYRASTLASGVPSRFSGSGSGTDFTLTISSLQPEDFATYYCQSSYGNYGDFGCGTKVTVLGGGGGSEVQLVESGGGLVQPGGSLRLSCAASGFSFNSDYWIYWVRQAPGKGLEWIASIYGGSSGNTQYASWAQGRFTISRDNSKNTVYLQMNSLRAEDTAVYFCARGYVDYGGATDLWGQGTLVTVSSGGGGSGGGGSGGGGSGGGGSIQMTQSPASLSASVGDRVTITCQASQSIGTYLAWYQQKPGKPPKLLIYRAFILASGVPSRFSGSGSGTDFTLTISSLQPEDFATYYCQSNFYSDSTTIGPNAFGTGTKVTVLGGGGGSEVQLVESGGGLVQPGGSLRLSCAASGFSFSNSYWICWVRQAPGKCLEWIGCTFVGSSDSTYYANWAKGRFTISRDNSKNTVYLQMNSLRAEDTAVYYCARHPSDAVYGYANNLWGQGTLVTVSSGGGGSGGGGSIQMTQSPSSLSASVGDRVTITCQSSESVYSNNQLSWYQQKPGQPPKLLIYDASDLASGVPSRFSGSGSGTDFTLTISSLQPEDFATYYCAGGFSSSSDTAFGGGTKLTVLGGGGGSGGGGSGGGGSGGGGSEVQLVESGGGLVQPGGSLRLSCAASGFSLSSNAMGWVRQAPGKGLEYIGIISVGGFTYYASWAKGRFTISRDNSKNTVYLQMNSLRAEDTATYFCARDRHGGDSSGAFYLWGQGTLVTVSS
notes: trispecific scDb-scFv; also called 37-20-B03 sc09.1 scDb-i/38-02-A04 sc13 scDb-o/19-01-H04 sc03 scFv
With B9 the Kd (Fc tagged human PDL1) was 0.0098 nM, the kon (Fc tagged human PDL1) was 3.4e+06 M⁻¹ s⁻¹ and the Kd (Fc tagged human CD137) was 1.1 nM. The kon (Fc tagged human CD137) was 320000 M⁻¹ s⁻¹, the “IC50 (ng/ml), NF-AT potency assay, +HSA” value (human PDL1 on cells) was 54.8 ng/mL and the “rel. IC50 (avelumab/test), +HSA” value (human PDL1 on cells) was 0.68 fold. The “IC50 (ng/ml) (EC50 in Table 16C), NFkB reporter, HCC827 + IFNg, 6 h, +HSA” value [1] was 20.1 ng/mL, the “IC50 (ng/ml) (EC50 in Table 16C), NFkB reporter, HCC827 + IFNg, 24 h, +HSA” value [1] was 7.24 ng/mL and the “rel. IC50 (PRO1186/test), 6 h” value [1] was 0.55 fold. For the same binder, the “rel. IC50 (PRO1186/test), 24 h” value [1] was 1.23 fold, the IC50 (biotinylated human PDL1 [2]) was 8.18 ng/mL and the “rel. IC50 (IC50 avelumab/IC50 test)” value (biotinylated human PDL1 [2]) was 1.51 fold. For the same binder, the IC50 (biotinylated human PDL1 [3]) was 1.78 ng/mL and the “rel. IC50 (IC50 avelumab/IC50 test)” value (biotinylated human PDL1 [3]) was 1.24 fold.
